Laboratory results published in a protein production outcome set (Wang et al. 2014).

test: label from the status in PepcDB records

Q: For “MKEKISEKEYKALIRKIGKEHFDGEKEEYGDGTVGVWTYELRKYKLKPPVKVKYVTQEQFQEYKDSNNQRLIKIETTLAAQGEQIRIQVEQIKELQIEQKAQGETLKLILQTLQKMSDRLDKMEVKMDKMEEKMDKMEGKIDKIENRMDKMEVKMDKMEKRIDKLESKLEHHHHHH”, which protein production is on record?
A: failed

Q: Which protein production does the source give for “MKEKLWTTTFVVNMLLNFIFYLVFYLPTVVIGTMAMERYHASASIAGILSGIFIVGGFIARLWAGNNMKRLGAKKLLYIGTLIYFLLTFAYFFVHSVVLLLILRLVHGLGFGIAATASGTLAGAIVPSSRRGEGIGYYALSVTLSSAVGPFLSMFLYRTSGFYSLIWLSALLLFIALVGIFFIHVEKTTDSSNSVDNKVHKKFAWSNYFEKEALPISLIAFLIGISYSSILSFMDAYARNIHLSEAASFFFLVYAITVLLSRPITGRVFDGFGDNFVMYPTYLFFALGLLLIGFAHSGWMLLLAAIFIGLGYGSFSPFGQAIAIRNSEAHRLGITTSTFFGFMDMGVGFGPFILGMFMPLLGYRNLYFASAILALLIAVIYHFVHGRHAKREN” here?
A: failed

Q: For “MKELIKEHQKDINPALQLHDWVEYYRPFAANGQSANYIPALGKVNDSQLGICVLEPDGTMIHAGDWNVSFTMQSISKVISFIAACMSRGIPYVLDRVDVEPTGDAFNSIIRLEINKPGKPFNPMINAGALTIASILPGESAYEKLEFLYSVMETLIGKRPRIHEEVFRSEWETAHRNRALAYYLKETNFLEAEVEETLEVYLKQCAMESTTEDIALIGLILAHDGYHPIRHEQVIPKDVAKLAKALMLTCGMYNASGKYAAFVGVPAKSGVSGGIMALVPPSARREQPFQSGCGIGIYGPAIDEYGNSLTGGMLLKHMAQEWELSIF”, which protein production is on record?
A: not failed

Q: Which protein production does the source give for “MKELQEKNEQITLLVEMSDIMLACGSQEELSEVMAKYSQRLLQFSSGYLFIMHPSKNYLEKAASWGNPHPHDLTFTPEQCWAIRLGRIHYAGSSRIELMCSHMMFDEQPELSLLCVPLMAQNDIYGLLYLEVGLKFDENQQLLITAFAELTALALANVRLRENLRYQSIR” here?
A: failed

Q: For “MKEPPMTKTVFHLGVTEADLNGATLAIIPGDPARVQKIAELMDNPVFLASHREYTVYRAELDGQSVVVCSTGIGGPSTSIAVEELAQLGVRTFLRVGTTGAIQPHVNVGDMIVTTGSVRLDGASLHFAPMEFPAVPDFDVATAMKAAAQESGATVHMGVTASSDTFYPGQERYDTFTGRVVRRFQGSMKEWQDMGVLNFEMESATLLTMCASSGLKAGCVAGVIINRTQKEIPDHATLKETEARSIKVVVEAARKMLK”, which protein production is on record?
A: not failed

Q: For “MKERIVGQSGELFCFGQMPVWKVENLPEVLLSGYSSEEGEWVCLNVLQGDVEVRAPDGSAEVWSADGGDCVFAPQQVFSVKPKTDDAEIRLSLYCAAADYFHKKYGMSATHSAVAAARDTVPAGRALDMGCGQGRNALFLGLKGFEVTAVDHNPAALANVAELAEAEGLNVRTLEYDLNAAALQGEFDYIVATVVLMFLMPQRVPDVIADMQAHTAAGGYNLIVSAMDTADFPCPMPFPFKFKEGELKDYYRDWELVEYKEELGSMHAKDENGNPIRFKFVTMLAKKPELEHHHHHH”, which protein production is on record?
A: failed

Q: Which protein production does the source give for “MKFDESKTLLPVRKPVNGNRKTAGYKLWVLIAVLLLAFGSMLTGSVSLKGIGLFHSADGVNAFSFGDDLDVLEIEEREKVVRQMWDVYGRSGGVKVPRFWREAFEAAYEFLISDSAAVRNAAVSDIAKLSLVRFVKSESTSAQPNLH” here?
A: failed

Q: For “MKFFGFYRPIALIAGITVSASILTSVATAAESPTSFQAITPAFSSSSAPEADAEANTSEATADLLYVAENQLLIKLSNAVVEDVNGEILMKDNKGTLLENLTAELQAQPGFSIEKVDSHTALLTMNPDEVPDLQDWRCGVGALSGGVAGVVATGLALAALGVATGGTGFAVLAAGGLAGYGTGAVANC”, which protein production is on record?
A: failed

Q: With “MKFFSVFILAILSILCMPLIASTTNYDETLTKIETLQHSDLPAAINLIKTIESEFGAMSRLQQGRVLLFKGAASIYSGQYQTAIELLGQAEALLKDSEMLFSAYSYEATAYIALRHFNDAFIAMGKSLGLIERIEDTNLKRASYLRLASLYSAMGISEEVATYATKALALASESDVKDICGARLYLSVHQLEIASYAQAFDEFKSTRSYCESSGYPLIANIALKGMGESSLRLNEPQLAISYLLDSLKGYESFNFELEINSVHELLSEAYLLLQDSTKAELHAQYVMNLVDDSSNTELKHGASGVLAKIYAQKQQFEQAYEYSRKEQHYNQLIFDESRMKTLAYQAAKFNADEQAREINLLNKERELYIAQQMVKEREYTNMLMFITILVGGLFFLAILLVVGNLQKRRFMRMAKMDALTGVLNRGAGQDLGENMFVQAAARGGDYCVILFDLDHFKRINDSYGHGTGDWALKKVVEVLKPHIRNGDVFARIGGEEFALFLPYANEAKGLDVAEQCRSRIEAIDTHLSGHKFTITASFGVSGMTKDDLSLDPLLHRADMALYAAKSNGRNCVSCYQDALMCDKRVTNLTSELARQP” as the sequence, how does the protein production read?
A: failed

Q: With “MKFHVIDRENWNREQYFEHYLELKCTFSMTVNVDITLLIKKVHQKGIKFYPTFIYIISRIINKHKEFRTCFNDEGVLGYWEEMIPSYTIFHKDDKSFSSIWTDYSSDFRIFYKNYEEDMRCYASVHGLLTKENIPPNIFPISGIPWTSFTGFNLNINNDGDFLLPIITCGKYFNEENKIMLPVSLQVHHSVCDGYHVSRFIEDLQELSNSCNEWLK” as the sequence, how does the protein production read?
A: failed

Q: Which protein production does the source give for “MKFQLYIQPKLDILQGNIVEYEILLRDDSEVPRFPLSELEAVLADEELYLTFCEWFSDAFFDVLKKYPNDRFAINIAPQQLFYMETLHMLDKLRSESHRITIEMTEDIFDVPAHKRHLNADDKDAFILNKIKIIHGLGYHVAVDDVGCGLNSLERVLSYLPYIIELKFSLIHFNNIDLEDLLLFIKAWANFAHKNNLDFVVEGIETKETMAILESHGVSIFQGYLVNKPFPV” here?
A: failed

Q: With “MKFSVIIPVYNASKFIDYCVESVLSQSYSDIEVILINDGSTDKSGEICEGFARKDNRVKVYHQENQGAAVARNHGIRKATGDYLLFPDSDDYYASSLGFEEINNQLEETKADVLIHDSFVERGNGTPDDLHSSLLREEVLKLEKIEFIEYLIKKDKLTRSAWTKVISRSFLSKNNILFPTVRQTEDTGFTAELVRLGNSFDWYEKQFYAYVKHDESVTAKRLPESIIHDSFSVIKTAVINGELIKDSRYREAYYSYLAYPYVVLIGQTKEAINRGVIKENTILNDLKQYSFLMKYNLNPKLKVIKHLYKLFGYLMIVFLLSVMMELTYRKQGV” as the sequence, how does the protein production read?
A: failed

Q: Which protein production does the source give for “MKGKEIMEIKRILVSRTDKIGDLVLSIPSFFMLKKMYPNAELVVIVRKYNVDIVKNLPYIDRIVIIDEYSKAELLEKIAYFKADVFIALYNDSYIASLARASKAKIKIGPISKLSSFFTYNKGVLQKRSLSLKNEGQYNLDLVTKLDRKRFAILYELNTKLILTDENKKVADVYFKENSIEGKTLVVNPFIGGSAKNITDEQYISILKKIKEKMPDLNIIITSYTTDEERTEKLCKDIGKDKIFAFSNGASILNTASIIDRADVYFGASTGPTHIAGALGKKIVAIYPHKKTQSPTRWGVLGNSNVRYIIPDENNPNEDYKNPYFDNFTKDMEDKVVKAILEALK” here?
A: failed

Q: With “MKGKLQNIHPLGMTIIIGTLFARFATSMSIPFLAIYLTTVKGVSAGMTGAIIGTSALVGVFASFIGGNLSDRFGRKMIMLWSMIVWMFVFIGFSLADHVLSFFLLNALNGLCRSFFEPTSRALLSDLTKPEYRLLVYNLRYGAINVGVAIGPIVGLQIGSAKSTIPFLVAAGVYILYTAILAFQFKKYPMEKKKVSTEKPVTMLNAMRILRKDIVFLVALVGIILSNCGFSHLTTTVSQYFANAHIFQDGVKVFSYMLALNAIVVVVIQYPVIQICKKYTPLVSIMVGTLFVSGGLFGFGIIESTLGAAICTIIFTIGEVLMFSMTDVFIDDIAVAHLKGTYFGAMGFSGIGAVIGPWFGGVLLDYYGYQNGFVVFSALAIFSTVAFPVLLVTKSLLKKRYDGNSNIELHAK” as the sequence, how does the protein production read?
A: failed

Q: For “MKGKVVSYLAAKKYGFIQGDDGESYFLHFSELLDKKDEGKLVKGSMVHFDPTPTPKGLAAKAISLPEVFIRERLVDFFTTRDNRPKNGTVIASFPIATRFFKDPSEGRRHLEQLAKHCGCNAVLNVSFEKDTFSKGNYRYTVHAFKGELALVTEKVPADAQELVVASAELLEKRKADVEQAVKQMSEAENLARQKQLSGCLGTLAIITLIPLALVLTAIAVFPA”, which protein production is on record?
A: failed

Q: Which protein production does the source give for “MKGRIELGDVTPHNIKQLKRLNQVIFPVSYNDKFYKDVLEVGELAKLAYFNDIAVGAVCCRVDHSQNQKRLYIMTLGCLAPYRRLGIGTKMLNHVLNICEKDGTFDNIYLHVQISNESAIDFYQKFGFEIIETKKNYYKRIEPADAHVLQKSLRSPCAPPAGELQKAD” here?
A: failed
